In experiment [1] the target is Adalimumab. Briefly: column dynamic binding capacity at 10% breakthrough, 4 min residence time; ligand density about 14.3 mg/ml.
Experiment [2] concerns the target Adalimumab. As to the kind of experiment: column dynamic binding capacity at 10% breakthrough, 6 min residence time; ligand density about 14.3 mg/ml.
For experiment [3], the target named is Fab-fragment produced from Trastuzumab by papain cleavage. As to the kind of experiment: column dynamic binding capacity at 10% breakthrough, Fab-fragment, 1 min residence time, duplicate columns.
For experiment [4] the target is unchanged. As to the kind of experiment: column dynamic binding capacity at 10% breakthrough, Fab-fragment, 6 min residence time; ligand density 10.6.
For experiment [5] the target is unchanged. As to the kind of experiment: column dynamic binding capacity at 10% breakthrough, Fab-fragment, 6 min residence time; ligand density 11.0.
The target in experiment [6] is dAb (VL single domain antibody). As to the kind of experiment: column dynamic binding capacity at 10% breakthrough, dAb, 4 min residence time, duplicate columns.
Experiment [7] has the same target. As to the kind of experiment: column dynamic binding capacity at 10% breakthrough, dAb, 6 min residence time, duplicate columns.
For experiment [8] the target is unchanged. As to the kind of experiment: column dynamic binding capacity at 10% breakthrough, dAb, 10 min residence time, duplicate columns.
Experiment [9] has the same target. As to the kind of experiment: column dynamic binding capacity at 10% breakthrough, dAb, 2.4 min residence time, duplicate columns.
Experiment [10] concerns the target Herceptin (Trastuzumab). As to the kind of experiment: column dynamic binding capacity at 10% breakthrough, Trastuzumab, 4 min residence time, at CIP cycle 35 (0.1 M NaOH).
Experiment [11] addresses IgG (Gammanorm). Briefly: SPR (Biacore), variant amine-coupled to CM5 chip, Gammanorm as analyte, 1:1 kinetic fit.
Experiment [12] deals with IgG (Gammanorm). As to the kind of experiment: SPR (Biacore), variant amine-coupled to CM5 chip, Gammanorm as analyte, steady state affinity fit.
For experiment [13], the target named is Fab-fragment produced from Trastuzumab by papain cleavage. As to the kind of experiment: column dynamic binding capacity at 10% breakthrough, Fab-fragment, 6 min residence time, duplicate columns.
For experiment [14] the target is unchanged. As to the kind of experiment: column dynamic binding capacity at 10% breakthrough, Fab-fragment, 10 min residence time, duplicate columns.

What is called Kd is the constant that tells how readily two partners part at equilibrium. Higher therefore signals lower affinity.

Sequence of Pentamer of SEQ ID NO:3 (ligand B2-1, pAM237) immobilized on cross-linked agarose beads (prototype separation matrix) (chain): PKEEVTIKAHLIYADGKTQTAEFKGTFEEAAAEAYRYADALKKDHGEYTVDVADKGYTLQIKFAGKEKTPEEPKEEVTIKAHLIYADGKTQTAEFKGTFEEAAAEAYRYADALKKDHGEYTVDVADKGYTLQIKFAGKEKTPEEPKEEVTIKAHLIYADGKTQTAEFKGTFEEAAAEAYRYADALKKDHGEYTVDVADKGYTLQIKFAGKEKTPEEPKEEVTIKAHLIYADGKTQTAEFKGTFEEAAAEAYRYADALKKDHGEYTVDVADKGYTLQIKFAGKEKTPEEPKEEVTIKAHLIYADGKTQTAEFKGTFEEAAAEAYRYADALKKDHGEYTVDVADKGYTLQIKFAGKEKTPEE

In the case of “Pentamer of SEQ ID NO:3 (ligand B2-1, pAM237) immobilized on cross-linked agarose beads (prototype separation matrix)”, the DBC Qb10% in experiment [1] is 57 mg/mL; in experiment [2], 67 mg/mL; in experiment [3] it was 48.1. For the same substance, the DBC Qb10% 6 min RT came to 56.8 in experiment [4] and 55.5 in experiment [5].
For “Capto™ L (Cytiva™), commercial Protein L matrix”, the DBC Qb10% came to 16.2 in [6]; 16.4 in experiment [7]; 16.7 in [8]; 15.8 in [9]; 16.9 in experiment [3]; 21 in experiment [10].
On to “Protein L variant pAM242 (domain C1b-1; H10, H45, Q60)”, for which the dissociation constant (Kd) is 49 nM in experiment [11] and 116 nM in experiment [12].
For “Protein L variant pAM250 (domain B1b-2; H10, H45, Y60)”, the figures for the equilibrium dissociation constant (Kd) in [11] and in [12] were 40 nM and 99 nM, respectively.
Consider “Protein L variant pAM256 (domain C1b-2; H10, H45, Y60)”, for which the results for the dissociation constant (Kd) in experiment [11] and in [12] were 59 nM and 134 nM, respectively.
On to “Protein L variant pAM240 (domain B5b-1; H10, H45, Q60)”, for which the Kd in [11] worked out at 15 nM; in [12], 79 nM.
On to “Protein L construct pAM114 (wt B3 domain; N10, N45, N60)”, for which the Kd in experiment [11] came to 11 nM; in experiment [12], 46 nM.
As for “Protein L variant pAM241 (domain C1-1; H10, H45, Q60)”, the values for the Kd in experiment [11] and in experiment [12] were 87 nM and 187 nM, respectively.
Turning to TOYOPEARL® AF-r Protein L-650F (Tosoh), the DBC Qb10% in experiment [6] is 25.2; in experiment [7], 26.3; in experiment [8], 26; in [9] it was 23.7; in [3] it was 43.7; in [13], 57.7. In addition, in experiment [14], the DBC Qb10% was 58.1.
Turning to “Protein L variant pAM236 (domain B1b-1; H10, H45, Q60)”, the figures for the Kd in [11] and in experiment [12] were 61 nM and 130 nM, respectively.
For the substance “Protein L variant pAM255 (domain C1-2; H10, H45, Y60)”, the values for the Kd in experiment [11] and in [12] were 146 nM and 324 nM, respectively.
Turning to “Protein L variant pAM254 (domain B5b-2; H10, H45, Y60)”, the results for the Kd in [11] and in experiment [12] were 7 nM and 41 nM, respectively.

Source of the values: US20250196025A1.
